Numbering of substitutions follows the chain as printed.
B1: #16 (antibody, human IgG1, V domains shown)
VH: EVQLQQSGAELMKPGASVKISCKATGNTFSSYWIEWVKQRPGHDLEWIGEILPGSGSTNYNEKFKGKATFTADTSSNTAYMQLNSLTSEDSAVYYCARSGAGGYDSGAFAYWGQGTLVTVSA
VL: DIEMTQSPASLAVSLGQRATISCRASESIDSYGNSFMHWYQQKPGQPPKLLIYRTSNLESGIPARFSGSGSRTDFTLTINPVEADDVATYYCQQSNEDPWTFGGGTKLEIK
notes: also called D2M002-016
B2: #11 (antibody, human IgG1, V domains shown)
VH: B1 VH with N27Y, S31N, D44G, N59D, K65E, N84S
VL: B1 VL with E3Q, I29V, S31T
notes: also called D2M002-011
B3: #22 (antibody, human IgG1, V domains shown)
VH: B1 VH with E1Q, N27Y, F29L, D44G, N84S
VL: B1 VL with E3V, M4L, I29V, S31T
notes: also called D2M002-022
B4: #27 (antibody, human IgG1, V domains shown)
VH: B1 VH with A24I, N27Y, T69S
VL: B1 VL with E3V, M4L, I29V, S31T
notes: also called D2M002-027
B5: #8 (antibody, human IgG1, V domains shown)
VH: B1 VH with S7P, N27Y, Y32S, I34T, D44G, N84S
VL: B1 VL with E3V, M4L, S31T
notes: also called D2M002-008
B6: D2M002-101 (antibody, V domains shown)
VH: QVQLVQSGAEVKKPGASVKVSCKASGYTFTRYVMHWVRQAPGQRLEWMGWINPNNEETKYSQKFKGRVTLTRDTSASTAYMELSSLRSEDTAVYYCARADLEILPYYDHARNAMDYWGQGTLVTVSS
VL: DIQMTQSPSSVSASVGDRVTITCRASENIYSHLAWYQQKPGKAPKLLVYNAKSLQSGVPSRFSGSGSGTDFTLTISSLQPEDFATYYCQHFWSTPPTFGGGTKVEIK
notes: humanized and optimized variant tested beside D2M002-002; also called P211_A12
B7: D2M002-122 (antibody, V domains shown)
VH: QVQLVQSGAEVKKPGASVKVSCKASGYTFTSYWIEWVRQAPGQGLEWIGEILPGEGSTNYNAKFKGRVTFTTDTSTSTAYMELRSLRSDDTAVYYCARSGAGGYDSGAFAYWGQGTLVTVSS
VL: AIQLTQSPSSLSASVGDRVTITCRASESVDTYGNSFMHWYQQKPGKAPKLLVYRTSNLESGVPSRFSGSGSGTDFTLTISSLQPEDFATYYCQQSNEDPWTFGGGTKVEIK
B8: D2M002-124 (antibody, V domains shown)
VH: B7 VH with E55S
VL: B7 VL
B9: #21 (antibody, human IgG1, V domains shown)
VH: B1 VH with E1Q, N27S, D44G, N84S
VL: B1 VL with E3V, M4L, I29V, S31T
notes: also called D2M002-021
B10: #28 (antibody, human IgG1, V domains shown)
VH: B1 VH with N27Y, D44G, N84S, A122S
VL: B1 VL with E3V, I29V, S31T
notes: also called D2M002-028
B11: #3 (antibody, human IgG1, V domains shown)
VH: QIQLLQSGPELVKPGASVKMSCKASGYTFTRYVMYWVKQKPGQGLEWIGYINPDNDGTKYNEKFKGKATLTSDKSSSTAYMELSSLTSEDSAVYYCARGDLELLPYYDYVRNAMDYWGQGTSVTVSS
VL: DIQMTQSPASLSASVGETVTITCRASGNIHNYLAWYQQKQGKSPQLLVYNAKTLADGVPSRFSGSGSGTQYSLKINSLQPEDFGSYYCQHFWSTPPTFGGGTKLEIK
notes: also called D2M002-003
B12: #41 (antibody, human IgG1, V domains shown)
VH: DVQLQQSGAELMKPGASVKISCKATGYTFSSSWIEWVKQRPGHGLEWIGEILPGSGNTSYNEKFKGKATFTADTSSSAAYMQLSSLTSEDSAVYYCARSGLYYDYGGFAYWGQGTLVTVSA
VL: B1 VL with E3V, M4L, I29V, S31T, W100F, G104S
notes: also called D2M002-041
B13: #23 (antibody, human IgG1, V domains shown)
VH: QVQMQQPGAELMKPGASVKISCKATGYTFSRYWIEWVKQRPGHGLEWIGEILPGDGSTNYNAKFKGQATFTADTSSNTAYMQFSSLTYEDSAVYYCARSGAGGYDSGAFAYWGQGTLVTVSS
VL: B1 VL with E3V, M4L, I29V, S31T
notes: also called D2M002-023
B14: #35 (antibody, human IgG1, V domains shown)
VH: B1 VH with E1Q, K19R, N27Y, Y32S, D44G, N84S, A110T
VL: B1 VL with E3V, M4L, S31T, T55A
notes: also called D2M002-035
B15: #12 (antibody, human IgG1, V domains shown)
VH: B1 VH with E1Q, V2I, Q5L, N27Y, S31N, D44G, N84S, A122S
VL: B1 VL with E3V, M4L, I29V, T89A
notes: also called D2M002-012
B16: #20 (antibody, human IgG1, V domains shown)
VH: B1 VH with E1Q, L4F, A9V, S31N
VL: B1 VL with E3V, I29V
notes: also called D2M002-020
B17: #31 (antibody, human IgG1, V domains shown)
VH: QVQMQPFGAELMKPGASVRISCKATGYTFSSSWIEWVKQRPGHGLEWIGEILPGSGTTNYNEKFKGKATFTADTSSNTAYMQLSSLTSEDSAVYYCARSGAGGYDSGAFTYWGQGTLVTVSA
VL: B1 VL with E3V, M4L, S31T, T55A
notes: also called D2M002-031
B18: #29 (antibody, human IgG1, V domains shown)
VH: B1 VH with L11V, M12K, N27Y, D44G, N84S, S91F, A92T, A110G, A122S
VL: B1 VL with E3V, S31T, T55A
notes: also called D2M002-029
B19: #36 (antibody, human IgG1, V domains shown)
VH: B17 VH with M4L, P6Q, F7S
VL: B1 VL with E3V, M4L, S31T, T55A
notes: also called D2M002-036
B20: #18 (antibody, human IgG1, V domains shown)
VH: B1 VH with A24T
VL: B1 VL with E3V, M4L, I29V
notes: also called D2M002-018
B21: #40 (antibody, human IgG1, V domains shown)
VH: B1 VH with A24T, S55R, Y60N, T69P, A101G
VL: B1 VL with E3V, M4L, I29V, S31T
notes: also called D2M002-040
B22: #17 (antibody, human IgG1, V domains shown)
VH: B1 VH with A24T, T58S
VL: B1 VL with E3V, M4L, I29V, A64S
notes: also called D2M002-017

Target: T1, human LILRB1 expressed on cells (human, UniProt Q8NHL6 24-650)
T1 construct: In 293T cells it was expressed from pCMV3-LILRB1-GFP; also called CHO-LILRB1; Jurkat-LILRB1
T1 sequence (Q8NHL6 other isoform, or with tags, fused parts or gaps limits assumed): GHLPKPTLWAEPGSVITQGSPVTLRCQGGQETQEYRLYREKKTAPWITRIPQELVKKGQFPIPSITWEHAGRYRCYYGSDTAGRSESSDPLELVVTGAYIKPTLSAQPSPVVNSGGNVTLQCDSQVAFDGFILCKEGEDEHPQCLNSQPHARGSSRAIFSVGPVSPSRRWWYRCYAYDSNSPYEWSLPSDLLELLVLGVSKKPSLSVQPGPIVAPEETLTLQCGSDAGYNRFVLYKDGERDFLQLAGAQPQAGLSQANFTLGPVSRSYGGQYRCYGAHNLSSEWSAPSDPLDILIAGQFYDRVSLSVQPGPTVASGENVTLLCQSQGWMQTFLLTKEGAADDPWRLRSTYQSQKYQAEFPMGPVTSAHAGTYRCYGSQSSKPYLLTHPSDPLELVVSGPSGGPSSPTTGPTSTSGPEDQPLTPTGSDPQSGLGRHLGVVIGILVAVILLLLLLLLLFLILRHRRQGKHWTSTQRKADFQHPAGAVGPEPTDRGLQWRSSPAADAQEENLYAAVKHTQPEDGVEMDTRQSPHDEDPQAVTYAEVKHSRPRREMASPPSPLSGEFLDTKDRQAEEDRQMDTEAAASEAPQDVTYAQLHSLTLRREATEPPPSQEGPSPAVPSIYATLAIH
Test: flow cytometry, CHO-LILRB1 cells; blocked ligand: APC HLA-G trimer tetramer

Row | IC50 [µg/mL] | Binder
1 | 1.18 | B1
2 | 0.367 | B2
3 | 0.758 | B3
4 | 0.569 | B4
5 | 0.26 | B5

Target: T2, human LILRB2 expressed on cells (human, UniProt Q8N423 22-597)
T2 construct: In 293T cells it was expressed from pCMV3-LILRB2-GFP; also called CHO-LILRB2; Jurkat-LILRB2
T2 sequence (Q8N423 other isoform, or with tags, fused parts or gaps limits assumed): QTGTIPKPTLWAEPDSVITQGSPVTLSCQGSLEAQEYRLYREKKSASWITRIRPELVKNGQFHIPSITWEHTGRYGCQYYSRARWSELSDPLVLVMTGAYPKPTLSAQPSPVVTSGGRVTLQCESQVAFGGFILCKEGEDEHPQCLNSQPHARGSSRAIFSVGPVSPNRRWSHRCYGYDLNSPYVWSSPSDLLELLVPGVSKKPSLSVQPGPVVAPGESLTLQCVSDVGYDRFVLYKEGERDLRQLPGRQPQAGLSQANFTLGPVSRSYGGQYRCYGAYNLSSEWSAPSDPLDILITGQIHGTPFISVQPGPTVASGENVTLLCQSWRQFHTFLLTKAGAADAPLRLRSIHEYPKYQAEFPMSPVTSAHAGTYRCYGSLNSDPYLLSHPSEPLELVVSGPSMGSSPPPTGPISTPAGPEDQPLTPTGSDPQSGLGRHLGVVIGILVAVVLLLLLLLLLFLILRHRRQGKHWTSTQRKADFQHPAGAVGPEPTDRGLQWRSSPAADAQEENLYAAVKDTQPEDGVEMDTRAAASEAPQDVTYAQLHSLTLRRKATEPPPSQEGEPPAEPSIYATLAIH
Test: flow cytometry, Jurkat-LILRB2 cells; blocked ligand: APC HLA-G monomer tetramer

Row | IC50 [µg/mL] | Binder
6 | 0.025 | B6
7 | 0.022 | B7
8 | 0.03 | B8

Target: T2, human LILRB2 expressed on cells
Test: flow cytometry, CHO-LILRB2 cells

Row | EC50 [µg/mL] | gMFI (max) | Binder
9 | 0.894 | 25600 | B9
10 | 0.836 | 26600 | B10
11 | 1.2 | 21600 | B2
12 | 0.911 | 26300 | B3
13 | 0.435 | 23900 | B4
14 | 0.565 | 24800 | B5
15 | 0.058 | 18500 | B11

Target: T2, human LILRB2 expressed on cells
Test: flow cytometry, Jurkat-LILRB2 cells

Row | EC50 [µg/mL] | Binder
16 | 0.131 | B6
17 | 0.111 | B7
18 | 0.145 | B8

Target: T1, human LILRB1 expressed on cells
Test: flow cytometry, Jurkat-LILRB1 cells; blocked ligand: APC HLA-G trimer tetramer

Row | IC50 [µg/mL] | Binder
19 | 0.138 | B6
20 | 0.501 | B7
21 | 0.427 | B8

Target: T1, human LILRB1 expressed on cells
Test: flow cytometry, CHO-LILRB1 cells

Row | EC50 [µg/mL] | gMFI (max) | Binder
22 | 2.35 | 50600 | B9
23 | 1.83 | 40300 | B10
24 | 1.46 | 40000 | B2
25 | 1.99 | 49300 | B3
26 | 1.02 | 35700 | B4
27 | 1.08 | 46500 | B5
28 | 0.264 | 29900 | B11

Target: T3, LILRB1-ECD-HIS (SinoBiological Cat #: 16014-H02H) (human, UniProt Q8NHL6 24-461)
T3 construct: Bought protein; also called monomeric antigen LILRB1-ECD-HIS; not shown: His tag
T3 sequence (Q8NHL6 other isoform, or with tags, fused parts or gaps H02H H02H): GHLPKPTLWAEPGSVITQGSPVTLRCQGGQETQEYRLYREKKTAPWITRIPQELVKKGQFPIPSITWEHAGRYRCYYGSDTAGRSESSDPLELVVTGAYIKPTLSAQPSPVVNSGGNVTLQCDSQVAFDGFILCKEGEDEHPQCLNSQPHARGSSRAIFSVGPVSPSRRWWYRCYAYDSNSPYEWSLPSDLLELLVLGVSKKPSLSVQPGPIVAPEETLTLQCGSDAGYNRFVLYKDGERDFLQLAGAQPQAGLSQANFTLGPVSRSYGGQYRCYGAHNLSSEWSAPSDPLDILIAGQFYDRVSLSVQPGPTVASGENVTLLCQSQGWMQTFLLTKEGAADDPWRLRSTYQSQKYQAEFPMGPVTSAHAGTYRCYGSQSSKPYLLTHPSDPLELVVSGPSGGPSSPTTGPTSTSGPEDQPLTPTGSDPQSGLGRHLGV
Test: SPR (Carterra LSA), antibody captured, antigen injected;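 note: kd obtained from kinetic analysis of antibody binding to the antigen, with association and dissociation phases fitted in the instrument software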

Row | Kd [nM] | Binder
29 | 0.667 | B9
30 | 23.2 | B12
31 | 7.65 | B13
32 | 0.882 | B10
33 | 0.714 | B1
34 | 10.4 | B14
35 | 1.6 | B15
36 | 1.19 | B16
37 | 20 | B17
38 | 0.417 | B2
39 | 28.7 | B18
40 | 3.44 | B19
41 | 0.588 | B3
42 | 0.556 | B4
43 | 1.36 | B20
44 | 34.4 | B21
45 | 0.64 | B5
46 | 1.18 | B22
47 | 57.1 | B11

Target: T4, LILRB2-ECD-HIS (SinoBiological Cat #: 14132-H02H) (human, UniProt Q8N423 22-460)
T4 construct: Bought protein; also called monomeric antigen LILRB2-ECD-HIS; not shown: His tag
T4 sequence (Q8N423 other isoform, or with tags, fused parts or gaps H02H H02H): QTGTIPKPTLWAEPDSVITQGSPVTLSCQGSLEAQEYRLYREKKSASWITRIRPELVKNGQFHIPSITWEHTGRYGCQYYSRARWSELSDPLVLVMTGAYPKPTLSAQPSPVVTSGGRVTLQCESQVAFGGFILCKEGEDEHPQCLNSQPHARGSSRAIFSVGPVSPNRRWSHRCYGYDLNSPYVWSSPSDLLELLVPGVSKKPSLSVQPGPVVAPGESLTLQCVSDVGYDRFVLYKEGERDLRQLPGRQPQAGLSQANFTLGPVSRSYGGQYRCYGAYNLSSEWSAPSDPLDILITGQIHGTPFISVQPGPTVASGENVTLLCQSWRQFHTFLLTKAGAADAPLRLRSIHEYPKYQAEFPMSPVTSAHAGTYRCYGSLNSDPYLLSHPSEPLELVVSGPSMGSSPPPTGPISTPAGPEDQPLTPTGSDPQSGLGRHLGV
Test: as above

Row | Kd [nM] | Binder
48 | 0.1 | B9
49 | 0.624 | B12
50 | 0.636 | B13
51 | 0.0385 | B10
52 | 0.0385 | B1
53 | 0.617 | B14
54 | 0.2 | B15
55 | 0.2 | B16
56 | 1.26 | B17
57 | 0.0213 | B2
58 | 1.59 | B18
59 | 0.145 | B19
60 | 0.0323 | B3
61 | 0.0481 | B4
62 | 0.0526 | B20
63 | 3.05 | B21
64 | 0.191 | B5
65 | 0.0476 | B22
66 | 0.542 | B11

Target: T1, human LILRB1 expressed on cells
Test: flow cytometry, Jurkat-LILRB1 cells

Row | EC50 [µg/mL] | Binder
67 | 0.201 | B6
68 | 1.6 | B7
69 | 1.86 | B8

Target: T1, human LILRB1 expressed on cells
Test: flow cytometry, CHO-LILRB1 cells
Remark: another data set of the same source

Row | EC50 [µg/mL] | Binder
70 | 2.66 | B1
71 | 1.13 | B2
72 | 2.01 | B3
73 | 1.72 | B4
74 | 0.768 | B5

— patent publication US20250171534A1 (D2M BIOTHERAPEUTICS, published 2025)
